This note sets out measurements from publication PMC11208146, “Molecular basis for transposase activation by a dedicated AAA+ ATPase”.

Series [1] concerns the target IstB (Geobacillus stearothermophilus (IS5376, …, UniProt Q45619 1-251)). The experiment in a line: cryo-EM structure (3.2 A); size-exclusion co-elution; 1 mM ATP, 5 mM MgCl2; IstB-DNA: 20 mM HEPES pH 7.5, 150 mM NaCl, 5 mM MgCl2, 5% glycerol, 1 mM ATP, 1 mM DTT; dialysis at 4 C, SEC at room temperature; IstB:DNA 6.5:1. STC complex buffer not in the material. The following applies: protein: recombinant; tags: His6-MBP, cleaved with PreScission protease; chain copies: 10; blunt. (In general: SEC sorts molecules by how far they enter the pores of the column.)

Series [2] concerns the target IstA;IstB E167Q (Walker B mutant) (Geobacillus stearothermophilus (IS5376, …, UniProt Q45618;Q45619 1-400;1-251, |E167Q)). In words: cryo-EM structure (3.6 A; core 3.2 A); ATP, with ADP in IstA-bound IstB subunits; Mg2+; IstB-DNA: 20 mM HEPES pH 7.5, 150 mM NaCl, 5 mM MgCl2, 5% glycerol, 1 mM ATP, 1 mM DTT; dialysis at 4 C, SEC at room temperature; IstB:DNA 6.5:1. STC complex buffer not in the material. To be noted: protein: recombinant;recombinant; tags: C-terminal MBP-His6, cleaved with TEV protease;His6-MBP, cleaved with PreScission protease; chain copies: 4;20; 5' overhang 5 nt on non-transferred strand; half-substrates of 3 strands, 2 copies pair via the insertion site (5 bp spacing).

The target in series [3] is IstA;IstB (Geobacillus stearothermophilus (IS5376, …, UniProt Q45618;Q45619 1-400;1-251, |)). The experiment in a line: negative-stain EM 2D averages; wild-type IstB; IstB-DNA: 20 mM HEPES pH 7.5, 150 mM NaCl, 5 mM MgCl2, 5% glycerol, 1 mM ATP, 1 mM DTT; dialysis at 4 C, SEC at room temperature; IstB:DNA 6.5:1. STC complex buffer not in the material. To be noted: protein: recombinant;recombinant; tags: C-terminal MBP-His6, cleaved with TEV protease;His6-MBP, cleaved with PreScission protease; chain copies: 4;20; 5' overhang 5 nt on non-transferred strand; half-substrates of 3 strands, 2 copies pair via the insertion site (5 bp spacing).

B1: random 60-mer target duplex (dsDNA)
DNA 1: TGCTTGCGATGATCCGACGTGTTAGCCACGCTGACTAGTTATGCCATGCCTCCCTTCAGG
DNA 2: CCTGAAGGGAGGCATGGCATAACTAGTCAGCGTGGCTAACACGTCGGATCATCGCAAGCA
Turning to B1, the binding result in series [1] is “binds”.

B2: IS21 strand-transfer complex (STC) DNA (dsDNA)
DNA 1: CCTTCTGGGGAATTTTAAACCGGCGATTTTGGGGAAAAAATAATCGGCCTTGACAGCTGCACAGTAAGAGAATTATGCAGTGCTGCCATAACCATGAGTGATAACACTGCGGCCAACTTACTTCTGACAA
DNA 2: ATTCATGTCAAGGCCGATTATTTTTTCCCCAAAATCGCCGGTTTAAAATTCCCCAGAAGG
DNA 3: TTGTCAGAAGTAAGTTGGCCGCAGTGTTATCACTCATGGTTATGGCAGCACTGCATAATTCTCTTACTGT
For the molecule B2, the binding result in series [2] and in series [3] was “binds” in each case.
